# Results published in paper PMC3753634.
# T1: LtrC (phage phi55 ORF34) (Staphylococcus aureus phage phi55, UniProt Q4ZB49 1-133)
# T1 sequence: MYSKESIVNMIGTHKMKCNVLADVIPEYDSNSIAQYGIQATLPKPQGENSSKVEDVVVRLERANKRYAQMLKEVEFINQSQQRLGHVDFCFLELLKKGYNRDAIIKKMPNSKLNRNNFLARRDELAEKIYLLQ
# T2: ArpU (phage phiFL2A late transcriptional regulator) (Enterococcus faecalis phage phiFL2A, UniProt D2IZF3 1-155)
# T2 sequence: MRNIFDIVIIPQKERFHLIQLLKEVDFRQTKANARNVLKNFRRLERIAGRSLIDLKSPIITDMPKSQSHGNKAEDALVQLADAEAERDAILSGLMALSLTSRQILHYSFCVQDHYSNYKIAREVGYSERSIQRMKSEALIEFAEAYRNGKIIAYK
# Experiments:
# [1] = molecular target: T1, LtrC (phage phi55 ORF34); assay: EMSA
# [2] = molecular target: T2, ArpU (phage phiFL2A late …); assay: EMSA
Binder,binding result [1],binding result [2]
"LtrC wt probe (phi55 repeat region, ORF34wt) (dsDNA) DNA 1: TTGGCAGAAAAGATTTATCTACTACAGTGACGAAAATGACAAAATGACAGAAATGACGAAAATGACACTATTTTTAAACTGTGAATTAATTTTATATA DNA 2: TATATAAAATTAATTCACAGTTTAAAAATAGTGTCATTTTCGTCATTTCTGTCATTTTGTCATTTTCGTCACTGTAGTAGATAAATCTTTTCTGCCAA",binds,
ArpU wt probe (phiFL2A repeat region) (dsDNA) DNA 1: TAATTTTGGCGGTTTTTGGCGGAAAGTTGGCGGTTTTATACGAATTTGAGTGCTAATATAGTAATATCGAAAG DNA 2: CTTTCGATATTACTATATTAGCACTCAAATTCGTATAAAAACCGCCAACTTTCCGCCAAAAAACCGCAAAATTA,,binds
